The results in this text go back to patent publication US20240336907A1, “NOVEL ENDO-ß-N-ACETYLGLUCOSAMINIDASE” (priority 2020, published 2024).

Test [1] concerns IgA. As to the kind of experiment: Substrate specificity in various antibodies (band shift in electrophoresis). It counts as biochemical, human. The following applies: 10 μg substrate, 1 μg enzyme, 37° C., pH 7.5, two hours. As for the experimental part:
(§1) The hydrolysis activities of Endo-Si, EndoS and PNGaseF on various antibodies were measured as follows. A 50 mM Tris-HCl buffer (pH 7.5) solution (50 μL) containing each of various substrates (10 μg), and 1 μg Endo-Si WT was prepared and incubated at 37° C. As the substrate, human IgG1-4, IgA, and IgE (all manufactured by Sigma Aldrich) were used. As the controls, 1 μg of EndoS WT and 500 U PNGase F PRIME (manufactured by N-zyme Scientifics) were used. Two hours after initiation of the reaction, a sample was taken from the reaction solution and analyzed for protein by a fully automated electrophoresis system mentioned above.
(§2) When a sugar chain is hydrolyzed by addition of an enzyme, the band of a protein shifts to the lower molecular weight side compared to when the enzyme was not added.

In test [2] the test system is IgE. The test is described as above. Particulars: 10 μg substrate, 1 μg enzyme, 37° C., pH 7.5, two hours. It counts as biochemical, human. As for the experimental part:
as §1, §2

Test [3] has as its system (Fucα1,6)GlcNAc-mAb2. The test can be described thus: Transglycosylation activity with SGP as donor, in combination with Endo-M N175Q. It counts as biochemical. The following applies: donor SGP (50 eq.), Endo-M N175Q 2.5 mU, Endo-Si enzyme 10 μg, 23° C., pH 7.5. The procedure:
Transglycosylation activity was evaluated as follows. A 50 mM (sodium) phosphate buffer (pH 7.5) solution (17 μL) containing (Fucα1,6)GlcNAc-mAb2 (0.5 mg), SGP (0.485 mg (50 eq.)), Endo-M N175Q (manufactured by Tokyo Kasei Kogyo Co., Ltd.) (2.5 mU) and each of various Endo-Si mutant enzymes (10 μg), was prepared and incubated at 23° C. A sample was taken from each of the reaction solutions at 2, 4, 6, 24, and 48 hours after initiation of the reaction and analyzed for protein by a fully automated electrophoresis system as mentioned above. In the chromatogram obtained, an unreacted product and a transglycosylated molecule, mAb2-(SG)2 are confirmed as discrete peaks. The transglycosylation rates were obtained based on the peak area ratio between the unreacted product and the transglycosylated molecule in accordance with the following expression.
Similarly, transglycosylation rates of individual Endo-Si mutant enzymes at each time period of a reaction were calculated (Table 6).

B1: Endo-Si WT: endo-β-N-acetylglucosaminidase derived from Streptococcus iniae, amino acid positions 34 to 928 in SEQ ID NO: 2 (protein, listed as Streptococcus iniae)
chain: REELKMPNGLEQSIADVEAKIDALTYLSKNSKDEFKHSMYEIPSNREHKPVSPKQALQNAKKADAQAERLAKMTIPKKEELKALEGPLYGGYFRTWQDKTSDPTETNKVNSFGELPKEVDLAFVFHDYTKDYSLFWEELATKQVPKLNKQGTRVIRTIPWRFLSGADHSDISADKEKFPNTEAGNKALAKAIVDEYVYKYNLDGLDIDIERDSVPKVNDKEDPEALARTVEVFKEIGKLIGANGADKSRLLIMDTTYTAEENPLIKETAQYLNLLLVQVYGFSGENGNYLHHKNILDETSSMEGRWQGYSKYIRPEQYMVGFSFYEEKDFNNRWKDINEEDPSDPHIGEKIQGTRAERYAKWQPKTGGLKGGLFSYAIDRDGVAQPKQKTEHPELDKIVKSEYKVSKALKKLMMTDDQYQPIDQSDFPDKALRESIIKQVGTRRGDLERFKGTLRLDNPEIKDLTGLNKLKRVAKLELINLPKITKIDKDDLPQNLKPLTDNQKSNLEIKGTYDDSKLYKDIPAFDLVISGLSGLESLDISGHQRDTLSGIDASTLPSLKAINISDNHFDLAQGTENRHILDTILATLAKNGASTASFDKQKPKGLYPESYSTAPLHLQVGQGKINVIDDLIFGTRTNQNTLINTENDFEAYKEQTIQGKPFIAPDYLYDNFKVSYKEYSASIVDSTLAETTDKTIDTAKAETYQVTVSNKDGKTVHSVKVIVGDEKPMMVNLAQDAKIIGTDNMTQSAKVFDGQKDQFLLSWNKDSSVIFELKTPGTAKHWRFFDDGKNDSVTLSVFKGDASNFETEKDKAENWVEITKDSRKNDDKVFSSPLEVDNAKYLKVTIKKEAKYIYFNELQILGYPGVVAKKTADDLRPTEADKSDDKSDKNDTEAK
Consider B1, for which the “hydrolysis activity on IgA” value in test [1] is recorded as “no hydrolysis activity”. The “hydrolysis activity on IgE” value in test [2] is “no hydrolysis activity”. For the same molecule, the Transglycosylation rate in test [3] (2 h) was determined as 1.2%; in test [3] (4 h), 1.1%; in test [3] (6 h), 0.0%; in test [3] (24 h), 0.0%; in test [3] (48 h), 0.0%.
